Experimental data from patent publication US20120275997A1 (published 2012).
One block for each binder: values may come before it.

How the values were obtained:
[1] = target: human CD151 protein (human) (UniProt P48509); assay: flow cytometry on A549 cells, antibody at 10 ug/ml
[2] = target: human CD151 protein (human) (UniProt P48509); assay: flow cytometry on BxPC3 cells, antibody at 10 ug/ml
[3] = target: human CD151 protein (human) (UniProt P48509); assay: flow cytometry on DU145 cells, antibody at 10 ug/ml
[4] = target: human CD151 protein (human) (UniProt P48509); assay: flow cytometry on NIH3T3-CD151 cells, antibody at 10 ug/ml
[5] = target: human CD151 protein (human) (UniProt P48509); assay: flow cytometry on PC3 cells, undiluted hybridoma supernatant
[6] = target: human CD151 protein (human) (UniProt P48509); assay: flow cytometry on PC3 cells
[7] = target: T1, recombinant large extracellular loop EC2 of human CD151 (human, UniProt P48509 113-221, limits assumed); assay: competition ELISA on recombinant EC2; competitor murine 203B6 at 80 ng/ml, detected with anti-mouse IgG
T1 construct: also called recombinant EC2 loop; extracellular loop 2
T1 sequence (looked up): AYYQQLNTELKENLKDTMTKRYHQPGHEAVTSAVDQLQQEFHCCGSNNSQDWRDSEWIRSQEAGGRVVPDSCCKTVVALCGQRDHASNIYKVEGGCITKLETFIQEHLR
Procedure: (§1) Cross-competition experiments were further performed by ELISA to evaluate the ability of the chimeric antibodies c214B2[IgG1] and c203B6[IgG1] to inhibit the binding of their corresponding murine forms to the recombinant EC2 loop. Briefly, 96-well ELISA plates were coated with recombinant EC2 at 5 μg/ml in PBS overnight at 4° C. Murine Mabs 203B6 and 214B2 at 80 ng/ml were further incubated in the absence or in the presence of increasing concentrations of their corresponding chimeric antibody forms, ranging from 0.01 to 20 μg/ml, for 1 h at 37° C. For control experiments, no murine antibody was added. Horseradish peroxidase-conjugated polyclonal goat anti-mouse IgG was added at a 1/5000 dilution in PBS and incubated for 1 h at 37° C. After incubation with the peroxidase substrate TMB for 10 min at room temperature, the reaction was stopped with 1 M sulfuric acid and the optical density at 450 nm was measured. […] IC₅₀ values, calculated by using the GraphPad Prism software, were 0.69 μg/ml and 0.71 μg/ml for c214B2[IgG1] and c203B6[IgG1], respectively.

[8] = target: T1, recombinant large extracellular loop …; assay: cross-blocking ELISA on recombinant EC2; competitor murine 214B2
Procedure: FIG. 18 illustrates the Cross blocking of the murine antibody […] by the chimeric […] and different variants of the humanized 214B2. The activity of the humanized variants of 214B2 (hz214B2) to cross block the parental antibody m214B2 was evaluated by ELISA using the recombinant extracellular loop 2 (EC2) of human antigen CD151. The activity of the humanized variants was compared to the chimeric 214B2.
The affinity of the humanized variants to the epitope of the parental antibody was evaluated by cross blocking the parental antibody with the humanized antibody. The parental antibody concentration was kept constant and the humanized antibody serial diluted. The chimeric antibody served as a positive control and as a reference in these experiments. The humanized antibodies were evaluated by there affinity in ELISA and flow cytometry assays. In the ELISA based assay the second extracellular domain (EC2) of the human CD151 was expressed recombinantly and purified by the six histidine tag. Purified EC2 protein was used to coated ELISA plates and binding of humanized anti-CD151 antibodies was measured indirectly by detecting the murine parental antibody with HRP conjugated anti-mouse IgG antibodies. Binding to CD151 of humanized anti-CD151 antibodies was evaluated by flow cytometry using the human prostate cancer cell line PC3. The affinity was determined by cross blocking the biotinylated parental murine anti-CD151 antibody. The biotinylated antibody was detected using fluorescein conjugated streptavidin. Affinity constant (Kd) was measured by BIACore analysis.

[9] = target: T1, recombinant large extracellular loop …; assay: competition ELISA on recombinant EC2; competitor murine 214B2 at 80 ng/ml, detected with anti-mouse IgG
Procedure: as §1

human CD151 protein (human), sequence (P48509 whole entry): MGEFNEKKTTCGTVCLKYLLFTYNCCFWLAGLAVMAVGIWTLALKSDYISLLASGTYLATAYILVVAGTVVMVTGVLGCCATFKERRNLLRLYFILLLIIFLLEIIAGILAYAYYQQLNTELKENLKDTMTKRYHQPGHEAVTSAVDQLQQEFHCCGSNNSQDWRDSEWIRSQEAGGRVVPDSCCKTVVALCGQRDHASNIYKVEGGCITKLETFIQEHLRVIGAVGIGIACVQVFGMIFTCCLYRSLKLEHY

- MFI [1]: 675
- MFI [2]: 768
- MFI [3]: 860
- MFI [4]: 540
- MFI [5]: 975
B1: murine antibody 203B6 (antibody, mouse IgG1, V domains shown)
VH: EVKLVESGGGLVQPGGSLKLSCAASGFTFSTYTMSWVRQTPEKRLEWVAYISSGGGTTYYPDTVKGRFTISRDNARNTLYLQMNSLKSEDTAMYYCATPRIGTGFAYWGQGTLVTVSA
VL: DIVLSQSPASLALSLGQRATISCRASASVEYYGTSLMHWYQQKPGQPPKLLIYEASNVESGVPARFSGSGSGTDFSLNIHPVEEDDLAIYFCQQSRKAPYTFGGGTKLEIK

- antibody concentration at which the binding plateau was reached [6]: 5 µg/mL
- IC50 [7]: 0.71 mg/L
B2: chimeric antibody c203B6[IgG1] (antibody, V domains shown)
VH: EVKLVESGGGLVQPGGSLKLSCAASGFTFSTYTMSWVRQTPEKRLEWVAYISSGGGTTYYPDTVKGRFTISRDNARNTLYLQMNSLKSEDTAMYYCATPRIGTGFAYWGQGTLVTVSA
VL: DIVLSQSPASLALSLGQRATISCRASASVEYYGTSLMHWYQQKPGQPPKLLIYEASNVESGVPARFSGSGSGTDFSLNIHPVEEDDLAIYFCQQSRKAPYTFGGGTKLEIKR
notes: Mouse variable domains fused to human IgG1 / Ckappa constant domains

- binding result [8]: binds
B3: humanized antibody Hz214B2VLVar2VHVar3 (G1) (antibody, human IgG1, kappa, V domains shown)
VH: QVQLVQSGAEVKKPGASVKLSCKASGYTFTSSSMHWVRQAPGQGLEWMGEIHPNSGNTNNAQKFQGRATLTVDTSISTAYVELSRLRSDDTAVYYCARARSFYYAMDCWGQGTSVTVSS
VL: NIQMTQSPSSLSASVGDRVTITCRASENVGTYVNWYQQKPGKAPKLLIYGASNLQSGVPSRFSGSGSATDFTLTISSLQPEDFATYYCGQTYSFPYTFGQGTKLEIKR
notes: also called VH Var3 with VL Var2

- binding result [8]: binds
B4: humanized antibody Hz214B2VLVar3VHVar2 (G1) (antibody, human IgG1, kappa, V domains shown)
VH: QVQLVQSGAEVKKPGASVKVSCKASGYTFTSSSMHWVRQAPGQGLEWMGEIHPNSGNTNNAQKFQGRVTLTVDTSISTAYMELSRLRSDDTAVYYCARARSFYYAMDCWGQGTSVTVSS
VL: NIVMTQSPSSLSASVGDRVTITCKASENVGTYVSWYQQKPGKAPKLLIYGASNLYSGVPSRFSGSGSATDFTLTISSLQPEDFATYHCGQTYSFPYTFGQGTKLEIKR
notes: also called VH Var2 with VL Var3

- binding result [8]: binds
B5: humanized antibody Hz214B2VLVar3VHVar3 (G1) (antibody, human IgG1, kappa, V domains shown)
VH: QVQLVQSGAEVKKPGASVKLSCKASGYTFTSSSMHWVRQAPGQGLEWMGEIHPNSGNTNNAQKFQGRATLTVDTSISTAYVELSRLRSDDTAVYYCARARSFYYAMDCWGQGTSVTVSS
VL: NIVMTQSPSSLSASVGDRVTITCKASENVGTYVSWYQQKPGKAPKLLIYGASNLYSGVPSRFSGSGSATDFTLTISSLQPEDFATYHCGQTYSFPYTFGQGTKLEIKR
notes: also called Hz214B2VHVar3VLVar3; Hz214B2VHVar3VLVar3 (G1)

- binding result [8]: binds
B6: humanized 214B2, VL Var1 with VH Var2 (IgG1) (antibody, V domains shown)
VH: QVQLVQSGAEVKKPGASVKVSCKASGYTFTSSSMHWVRQAPGQGLEWMGEIHPNSGNTNNAQKFQGRVTLTVDTSISTAYMELSRLRSDDTAVYYCARARSFYYAMDCWGQGTSVTVSS
VL: DIQMTQSPSSLSASVGDRVTITCRASENVGTYLNWYQQKPGKAPKLLIYGASSLQSGVPSRFSGSGSGTDFTLTISSLQPEDFATYYCGQTYSFPYTFGQGTKLEIKR
notes: also called Hz214B2VLVar1 with Hz214B2VHVar2 (G1)

- binding result [8]: binds
B7: humanized antibody Hz214B2VLVar4VHVar4 (G1) (antibody, human IgG1, kappa, V domains shown)
VH: QVQLVQSGAEVKKPGASVKLSCKASGYTFTSSSMHWVRQAPGQGLEWMGEIHPNSGNTNNNEKFKGRATLTVDTSISTAYVELSRLRSDDTAVYYCARARSFYYAMDCWGQGTSVTVSS
VL: NIVMTQSPSSLSASVGDRVTITCKASENVGTYVSWYQQKPGKAPKLLIYGASNRYTGVPSRFSGSGSATDFTLTISSLQPEDFATYHCGQTYSFPYTFGQGTKLEIKR
notes: also called Hz214B2VHVar4VLVar4; Hz214B2VHVar4VLVar4 (G1)

- binding result [8]: binds
B8: humanized antibody Hz214B2VLVar2VHVar2 (G1) (antibody, human IgG1, kappa, V domains shown)
VH: QVQLVQSGAEVKKPGASVKVSCKASGYTFTSSSMHWVRQAPGQGLEWMGEIHPNSGNTNNAQKFQGRVTLTVDTSISTAYMELSRLRSDDTAVYYCARARSFYYAMDCWGQGTSVTVSS
VL: NIQMTQSPSSLSASVGDRVTITCRASENVGTYVNWYQQKPGKAPKLLIYGASNLQSGVPSRFSGSGSATDFTLTISSLQPEDFATYYCGQTYSFPYTFGQGTKLEIKR
notes: also called VH Var2 with VL Var2

- binding result [8]: binds
B9: humanized 214B2, VL Var1 with VH Var3 (IgG1) (antibody, V domains shown)
VH: QVQLVQSGAEVKKPGASVKLSCKASGYTFTSSSMHWVRQAPGQGLEWMGEIHPNSGNTNNAQKFQGRATLTVDTSISTAYVELSRLRSDDTAVYYCARARSFYYAMDCWGQGTSVTVSS
VL: DIQMTQSPSSLSASVGDRVTITCRASENVGTYLNWYQQKPGKAPKLLIYGASSLQSGVPSRFSGSGSGTDFTLTISSLQPEDFATYYCGQTYSFPYTFGQGTKLEIKR
notes: also called Hz214B2VLVar1 with Hz214B2VHVar3 (G1)

- MFI [1]: 820
- MFI [2]: 849
- MFI [3]: 1330
- MFI [4]: 748
- MFI [5]: 1000
B10: murine antibody 214B2 (antibody, mouse IgG1, V domains shown)
VH: QVQLQQPGSVLVRPGASVKLSCKASGYTFTSSSMHWAKQRPGQGLEWIGEIHPNSGNTNNNEKFKGKATLTVDTSSSTAYVDLSSLSSEDSAVYYCARARSFYYAMDCWGQGTSVTVSS
VL: NIVMTQSPKSMSMSVGERVTLSCKASENVGTYVSWYQQKPEQSPKLLIYGASNRYTGVPDRFTGSGSATDFTLTISSVQAEDLADYHCGQTYSFPYTFGGGTKLEIK

- antibody concentration at which the binding plateau was reached [6]: 2.5 µg/mL
- IC50 [9]: 0.69 mg/L
B11: chimeric antibody c214B2[IgG1] (antibody, V domains shown)
VH: QVQLQQPGSVLVRPGASVKLSCKASGYTFTSSSMHWAKQRPGQGLEWIGEIHPNSGNTNNNEKFKGKATLTVDTSSSTAYVDLSSLSSEDSAVYYCARARSFYYAMDCWGQGTSVTVSS
VL: NIVMTQSPKSMSMSVGERVTLSCKASENVGTYVSWYQQKPEQSPKLLIYGASNRYTGVPDRFTGSGSATDFTLTISSVQAEDLADYHCGQTYSFPYTFGGGTKLEIKR
notes: Mouse variable domains fused to human IgG1 / Ckappa constant domains; also called chimeric 214B2; chimeric 241B2
